Assay results published in publication PMC3505834 (Nature immunology, 2012).

Molecular target: T1, recombinant soluble CD46 (CCP1-4) (human, UniProt P15529 35-285)
T1 sequence (looked up): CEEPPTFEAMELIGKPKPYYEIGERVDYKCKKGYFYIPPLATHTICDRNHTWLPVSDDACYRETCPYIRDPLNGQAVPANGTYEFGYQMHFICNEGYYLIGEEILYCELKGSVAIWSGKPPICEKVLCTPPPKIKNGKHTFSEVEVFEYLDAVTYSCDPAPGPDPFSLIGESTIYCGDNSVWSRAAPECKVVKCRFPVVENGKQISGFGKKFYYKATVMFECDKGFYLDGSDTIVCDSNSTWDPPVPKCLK
Assay: SPR

B1: J-1_(DSL-EGF3), recombinant Jagged1 construct of the DSL and first three EGF-like domains (domain or fragment)
chain: not shown
modifications: c-terminally biotinylated
B1 showed a Kd of ~8 µM.
